In patent US20180346600 one finds (scFv-Fc)(Fc) (heterodimer)(%) data, which are given here for 6 proteins.

What all share (assay): HEK293-F co-expression, Protein A purification, non-reducing SDS-PAGE densitometry
In data set [1] the target is FcCH3B, A205 (E357N/K370R).
In data set [2] the target is FcCH3B, A216 (E357N).
In data set [3] the target is T1, FcCH3B, B240 (D399G/K392G/K409M).
T1 chain: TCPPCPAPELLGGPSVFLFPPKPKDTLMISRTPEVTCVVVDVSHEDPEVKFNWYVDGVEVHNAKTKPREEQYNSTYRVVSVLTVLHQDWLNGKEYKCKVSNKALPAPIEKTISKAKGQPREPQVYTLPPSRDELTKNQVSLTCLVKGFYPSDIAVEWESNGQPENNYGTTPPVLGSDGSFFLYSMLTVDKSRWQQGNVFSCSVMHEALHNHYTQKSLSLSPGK

Data set [4] addresses FcCH3B, A241 (E357N).
For data set [5], the target named is FcCH3B, A210 (E357N/K370H).
The target in data set [6] is T2, FcCH3B, B215 (D399W/K392G/K409M).
T2 chain: T1 chain with G175W

Numbering of substitutions follows the chain as printed. Names and notes keep the numbering of the source.

B1: scFv-FcCH3A, A205 (E357D/S364W/K370E) (protein)
chain: T1 chain with E133D, S140W, K146E, G168K, G175D, M185K
Protein B1 came in with a (scFv-Fc)(Fc) (heterodimer)(%) in data set [1] of 88.8%.

B2: scFv-FcCH3A, A216 (E357G/S364W/K370E) (protein)
chain: T1 chain with E133G, S140W, K146E, G168K, G175D, M185K
On to B2, for which, in data set [2], the (scFv-Fc)(Fc) (heterodimer)(%) is 80.3%.

B3: scFv-FcCH3A, B240 (K392S/K409R/D399L) (protein)
chain: T1 chain with G168S, G175L, M185R
Regarding B3, the (scFv-Fc)(Fc) (heterodimer)(%) in data set [3] was found to be 83.3%.

B4: scFv-FcCH3A, A241 (E357N/S364W/K370E) (protein)
chain: T1 chain with E133N, S140W, K146E, G168K, G175D, M185K
With B4, in data set [4], the (scFv-Fc)(Fc) (heterodimer)(%) is 81%.

B5: scFv-FcCH3A, A210 (E357A/S364Y/K370E) (protein)
chain: T1 chain with E133A, S140Y, K146E, G168K, G175D, M185K
The protein B5 showed a (scFv-Fc)(Fc) (heterodimer)(%) in data set [5] of 80.8%.

B6: scFv-FcCH3A, B215 (K392R/K409R/D399L) (protein)
chain: T1 chain with G168R, G175L, M185R
On to B6, for which the (scFv-Fc)(Fc) (heterodimer)(%) in data set [6] turned out to be 78.1%.
